This series deals with K4 kissing-loop RNA reporter. The series is described as follows: apparent KD of K4 kissing-loop reporter; higher = weaker reporter binding. Conditions: Eterna round: R107. As for the experimental part: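 RNA-MaP round R107: designed RNA switches with theophylline, tryptophan, arginine or FMN aptamers are transcribed on-chip within common flanks. They are titrated with a labelled K4 kissing-loop RNA reporter in RNA-MaP buffer (100 mM Tris pH 7.5, 80 mM KCl, 4 mM MgCl2), without ligand or with the indicated ligand. Median apparent KD per design.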

Setting [1] is: input ligand: theophylline 20 uM.
Setting [2] is: input ligand: tryptophan 2.4 mM.
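Also: bound reporter read as fluorescence of individual clusters on recovered sequencing chips by microscopy, with normalized cluster intensities fitted with a binding model.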

“AUGUAUGAAUUAGGAUAUCGUUAGCCUUUCAUAUAUAUGAUAAAUGGAUAUGUCGUAGUGAUGUUACGAGAAGGAGUGUGGAGUA [KL-XFMN-B8]”: the “apparent KD of K4 kissing-loop reporter” value (input ligand: FMN 200 uM) was 49.3 nM; the “apparent KD of K4 kissing-loop reporter” value (input ligand: arginine 13.2 mM) amounted to 52.9 nM; the “apparent KD of K4 kissing-loop reporter” value (input ligand: none) is 38.2 nM; the “apparent KD of K4 kissing-loop reporter” value under setting [1] amounted to 64.6 nM; the “apparent KD of K4 kissing-loop reporter” value under setting [2] came out at 30.5 nM.
Taken in the same sequence, the figures for “GAGAUAGCGACGGCCGCCACUAGUGAUGUUAGUGCGGGUAGAUAGAUACUUGAACAGAAAUGACGUAGGACCGGGUCAGAUAGAG [#02 K4 Tryptophan B Exclusion]” were 162 nM, 94.5 nM, 125 nM, 140 nM and 149 nM.
Taken in the same sequence, the figures for “AUUUUAUUAACUGAUACCAGACUUAAUGAAUUGUAAAUUACUAGUGAUGUUAGUGAUUCUGUCCCUUGGCAGCAGUAUUUAUUAA [JR_ExcTheophyB_Sub012]” were 129 nM, 146 nM, 139 nM, 141 nM and 118 nM.
For the sequence “AAAUAGAUCAGUCAACCAGUGAUGUUGGAAGGAGCGUGCGAAAGCACAGGUAGGUCGCCAGAAUAAAAGUGGCUGAUCAAAAUAA”, the “apparent KD of K4 kissing-loop reporter” value was 357 nM (input ligand: FMN 200 uM); 384 nM (input ligand: arginine 13.2 mM); 374 nM (input ligand: none); 508 nM under setting [1]; 214 nM under setting [2].
In the case of “UCUGCAAAGUCGGCCGCCACUCCGGGCCCUAUAAAUGGGCGCAGUGAUGUUGCGGCUAGGCCUCUGAGGACCGGGACUUCGUAGA [Somale]”, the “apparent KD of K4 kissing-loop reporter” value is, setting by setting: (input ligand: FMN 200 uM) 62.8 nM; (input ligand: arginine 13.2 mM) 52.1 nM; (input ligand: none) 54.7 nM; under setting [1], 166 nM; under setting [2], 107 nM.
Taken in the same sequence, the figures for “AAUACAGUGUCGGCCGCCACUGUAACAUGCCAUGAGACAUGAGACAUGAGUGAUGUUCAUGUAGACAGGACCGGGACUCAUGUAU [KL-SSTryp-B3 #analogue]” were 450 nM, 373 nM, 455 nM, 370 nM and 227 nM.
Consider “UGAGAGUACCGGAUGGAGAAAUUGUAUGAUACCAGAGCAGAUUACCUCCCUUGGCAGCAUGCAUCCUGCUAGUGAUGUUGGCAAC [theeternabot_sameState_KL_Theo_A_48]”, for which the “apparent KD of K4 kissing-loop reporter” value is, setting by setting: (input ligand: FMN 200 uM) 676 nM; (input ligand: arginine 13.2 mM) 459 nM; (input ligand: none) 741 nM; under setting [1], 669 nM; under setting [2], 535 nM.
As for “UGCAGUGAUGUUGCUAUUUGUCUUGAUUAACGAGGACCGGUACGGCCGCCACUCGAUUUCUCUCUAAUCGAGUAUGUUGUUUAGU [#19 K4 Tryptophan A Exclusion]”, the “apparent KD of K4 kissing-loop reporter” value reads like this: (input ligand: FMN 200 uM) 153 nM; (input ligand: arginine 13.2 mM) 184 nM; (input ligand: none) 162 nM; under setting [1], 203 nM; under setting [2], 114 nM.
In the same order, the values of “UGUACCGAGACAGGAUAUGUCGUCGAAAGACGAAAUGGAGUGAUGUUCCUUAAACUGCGAAAGCAGACAGAAGGGUCUUGGUACU [FmnBS 29 A10+U76]” are 132 nM, 172 nM, 163 nM, 165 nM and 176 nM.
In the same order, the values of “UGGACGUUAUACAAUAAGUAUAACUGGGAUACCAGUGACGAAAGUCACCCUUGGCAGCUCAACUGCCAGUGAUGUUGGUAGUCCA [Astros-Eli-mod#5]” are 273 nM, 116 nM, 200 nM, 235 nM and 161 nM.
For “AAGUGUGUGGCGGCCGCCACUAGUCUCCAGUGAUGUUGGAGAUAUCACGUAAGUGAUAUCCGACAUAGGACCGGGCCAUAUAGAA [Same State - Tryptophan B (Freestyle 21)]”, the “apparent KD of K4 kissing-loop reporter” value worked out at 601 nM (input ligand: FMN 200 uM); 318 nM (input ligand: arginine 13.2 mM); 688 nM (input ligand: none); 556 nM under setting [1]; 474 nM under setting [2].
With “CAUACGCAUGGAGGAUAUGAGAUUUUUCAUAUUACUUUUUAUUCUCAGUGAUGUUGGGAUUUGUAAUCAGAAGGCCAUGUGUAUG [#10 K4 FMN B Exclusion]”, the “apparent KD of K4 kissing-loop reporter” value (input ligand: FMN 200 uM) was determined as 174 nM; the “apparent KD of K4 kissing-loop reporter” value (input ligand: arginine 13.2 mM) was 93.2 nM; the “apparent KD of K4 kissing-loop reporter” value (input ligand: none) stood at 99.8 nM; the “apparent KD of K4 kissing-loop reporter” value under setting [1] stood at 110 nM; the “apparent KD of K4 kissing-loop reporter” value under setting [2] amounted to 98.1 nM.
Regarding “AAACAUUGGUCUGAUACCAGCUUGAUCGGUAAACGAUCUACUGGAGUGAUGUUCCUAAAUAGCCCUUGGCAGCAGACCGAUGAAA [MAT - Same State Theophlline B - Mod of Eli - D6]”, the “apparent KD of K4 kissing-loop reporter” value reads like this: (input ligand: FMN 200 uM) 187 nM; (input ligand: arginine 13.2 mM) 172 nM; (input ligand: none) 177 nM; under setting [1], 132 nM; under setting [2], 181 nM.
In the same order, the values of “CGCCGUAAGGCGGUCGCUCCCACUCCGGAAGGAGCGCCCGUAAGGGCAGGUAGGUCGCCGGAGUGAUGUUCCGGUGGAGGGACCG [#2 Exclusion - Arginine A Attempt #8 (Inspired by Omei)]” are 323 nM, 274 nM, 339 nM, 352 nM and 330 nM.
Taken in the same sequence, the figures for “ACUUAGAAUGAAGGAUAUUGGUUACGAGGGCUAACCAAAACGGAUCACUUGUCCAGUGAUGUUGUCCAAGAAGGUCACGUUAAAC [theeternabot_exclusion_KL_FMN_B_44]” were 776 nM, 665 nM, 868 nM, 492 nM and 576 nM.
Consider “GUGCGGUGGAGGCUACCGCUACUCUGAGAAGGAGCGCAGAAGACUGCAGGUAGGUCGCUUAGAGCUUGCAGUGAUGUUGCAAGUU [KL-SSArg-A18]”, for which the “apparent KD of K4 kissing-loop reporter” value is, setting by setting: (input ligand: FMN 200 uM) 134 nM; (input ligand: arginine 13.2 mM) 135 nM; (input ligand: none) 183 nM; under setting [1], 156 nM; under setting [2], 176 nM.
Taken in the same sequence, the figures for “UGAUACCAGACUGAUACCAGCCACAGAGUCAAAGACUCUGAUAAAGGAACCAGUGAUGUUGGCCCUUGGCAGCAGUCUGGUAUCU [TheoBX 24 #SwitchBubble #StaticStem]” were 131 nM, 113 nM, 118 nM, 107 nM and 156 nM.
Taken in the same sequence, the figures for “AAUCAAUACAGAAGGAGCGUGACAAUUACUAUUGAAUUAGGAGCUAGUGAUGUUAGCAUAACACAGGUAGGUCGCUGUACAUUUA [JR_SSArginiB_Sub012]” were 145 nM, 175 nM, 163 nM, 182 nM and 148 nM.
For “UGGAUAUAGUGAUGUUAUAUAGAGAUUGAUACCAGUUAAGAGAAUAGCCCUUGGCAGCAGAAAGAAGUAUCAUUAGAGAAGAAUG [ExTheophyl.Ac]”, the “apparent KD of K4 kissing-loop reporter” value is, setting by setting: (input ligand: FMN 200 uM) 256 nM; (input ligand: arginine 13.2 mM) 182 nM; (input ligand: none) 222 nM; under setting [1], 213 nM; under setting [2], 177 nM.
In the same order, the values of “UGGAUAUAGUGAUGUUAUAUAGAGAUGGAUACCAGUUUAGAGAAGAGCCCUUGGCAGCCGAAAGAAGUAUCAUUAGAGAAGAAUG [ExTheophyl.Al]” are 257 nM, 164 nM, 214 nM, 212 nM and 179 nM.
For the sequence “ACCAUUUUACCGGCAGUAGUGAUGUUACUCCGAGGACCGGUACGGCCGCCACUCGCGAACGUAGGGUCGCGCACUCAAAGAGUGC”, the “apparent KD of K4 kissing-loop reporter” value is 100 nM (input ligand: FMN 200 uM); 75.6 nM (input ligand: arginine 13.2 mM); 106 nM (input ligand: none); 67 nM under setting [1]; 89.7 nM under setting [2].
